Experimental data as given in the nanobody polyreactivity screen of Harvey et al. (2022).

Experiment: yeast display, Sf9 membrane polyspecificity reagent, FACS + sequencing; frameworks hold sequencing errors
Method in brief: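 Sorting gates, low and high (top ~1%), were placed on anti-HA fluorescence to track expression and on streptavidin fluorescence to track reagent binding. A clone's polyreactivity label is taken from the gate it came out of. The reagent was 10% biotinylated, detergent-solubilized Sf9 membrane, applied for 1 hour at 4 °C to galactose-induced yeast display cells.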

Sequence	polyreactivity (PSR sort gate)
QVQLVESGGGLVQAGGSLRLSCAASGSIFTINTMGWYRQAPGKERELVAAITGSGGITYYADSVKGRFTISRDNAKNTVYLQMNSLKPEDTAVYYCAADTGYVHDGYWGQGTQVTVSS	low polyreactivity
QVQLVESGGGLVQAGGSLRLSCAASGSIFTKYAMGWYRQAPGKERELLAAITSSSGRTYYADSVKGRFTISRDNAKNTVYLQMNSLKPEDTAVYYCNRGKRVAVSYRPGGYDYWGQGTQVTVSS	high polyreactivity
QVQLVESGGGLVQAGGSLRLSCAASGSIFTKYAMGWYRQAPGKERELVAAITWSGGRTYYADSVKGRFTISRDNAKNTVYLQMNSLKPEDTAVYYCAADFFRQGYYYWGQGTQVTVSS	high polyreactivity
QVQLVESGGGLVQAGGSLRLSCAASGSIFTLNAMGWYRQAPGKERELVASISKNGGRTYYADSVKGRFTISRDNAKNTVYLQMNCLKPEDTAVYYCAARYYFTPSDGRRYDYWGQGTQVTVSS	high polyreactivity
QVQLVESGGGLVQAGGSLRLSCAASGSIFTLYAMGWYRQAPGKERELVATINWSGGSTSYADSVKGRFTISRDNAKNTVYLQMNSLKPEDTAVYYCAADAGSYDALDYSDLLYDYWGQGTQVTVSS	low polyreactivity
QVQLVESGGGLVQAGGSLRLSCAASGSIFTNYAMGWDRQAPGKERELVAAIRSSGGSTYYADSVKGRFTISRDNAKNTVYFQLNSLKPEDTAVYYCAARKSYKYPVNSAVGYWGQGTQVTVSS	high polyreactivity
QVQLVESGGGLVQAGGSLRLSCAASGSIFTNYAMGWYRQAPGKERELVAAISQSGDTTYNADSVKGRFTISRDNAKNTVYLQMNSLKPEDTAVFFCAAQYYRWFYYWGQGTQVTVSS	high polyreactivity
QVQLVESGGGLVQAGGSLRLSCAASGSIFTPNAMGWYRQAPGKERELVAAISWSGGGTYYADSVKGRFTISRDNAKNTVYLQMNSLKPEDTADYYCAVDFRYQDAYEYYWGQGTQVTVSS	low polyreactivity
QVQLVESGGGLVQAGGSLRLSCAASGSIFTPNVMGWYRQAPGKERELVAAISQSGGSTFYADSVKGRFTISRDNAKNTVYLQMNSLKPEDTAVYYCAADDGYTYYYWGQGTQVTVSS	low polyreactivity
QVQLVESGGGLVQAGGSLRLSCAASGSIFTPYAMGWYRQAPGTEREFVAVISWRVDSTYYADSVKGRFTISRDNAKNTVYLQMNSLKPEDTAVYYCAAKSYLLAPFGSGNRWSRYDYWGQGTQVTVSS	high polyreactivity
QVQLVESGGGLVQAGGSLRLSCAASGSIFTPYTMGWYRQAPGKERELVAAISWGADSTYYADSVKGRFTISRDNAKNTVYLQMISLKPEDTAVYYCGDDYWGWSNGYEYWGQGTQVTVSS	low polyreactivity
QVQLVESGGGLVQAGGSLRLSCAASGSIFTQNAMGWYRQAPGKERALVAAMSSGGSTNDADSVKGRFTISRDNAKNTVYLQMNSLTPEDTAVDYCAKSIDGWYWRRRRYDYWGQGTQVTVSS	low polyreactivity
QVQLVESGGGLVQAGGSLRLSCAASGSIFTQYVMGWYRQAPGKERELGAAITWSGGNTYYADSVKGRFTISRDNAKNTVYLQMNSLKPEDTAVYYCAAYKPYSKYNYWGQGTQVTVSS	high polyreactivity
QVQLVESGGGLVQAGGSLRLSCAASGSIFTRNAMGWYRQAPGKERELVARISARSGRTYYADSVKGRFTISRDNAKNTVYLQMNSLKPEDTAVYYFAVRYRGKYPFRYNYWGQGTQVTVSS	high polyreactivity
QVQLVESGGGLVQAGGSLRLSCAASGSIFTRYAMGWYRQAPGKERELVAAISSGGSTYYADSVKGRFTISRDNAKNTVYLQMNSLKPEDTAVYYCAKDSGSYRVGIYEPFPYGYWGQGTQVTVSS	low polyreactivity
QVQLVESGGGLVQAGGSLRLSCAASGSIFTRYAMGWYRQAPGKERELVAAISTSGGSTYYADSVKGRFTISRDNAKNTVYLQMNSLKPEDTAVYYCAADDQRRSGYYSWGQGTQVTVSS	high polyreactivity
QVQLVESGGGLVQAGGSLRLSCAASGSIFTSNVMGWYRPAPGKERELVAAITITGTTNYADSVKGRFTISRDNAKNTVYLQMNSLIPVDTAVYYCAKDPVDLSPADWRADYDYWGQGTQVTVSS	low polyreactivity
QVQLVESGGGLVQAGGSLRLSCAASGSIFTSYAMGWYRQAPGKERELVAGIDWSGGGTYYADSVKGRFTISRDNAKNTVYLQMNSLKPEDTAVYYCNADGPYTRYGPVDYWGQGTQVTVSS	low polyreactivity
QVQLVESGGGLVQAGGSLRLSCAASGSIFTTYAMGWYRQAPGKERELVAAISSTSGSTYYADSVKGRFTISRDNAKNTVYLQMNSLKPEDTAVYYCAARGGYWGQGTQVTVSS	low polyreactivity
QVQLVESGGGLVQAGGSLRLSCAASGSIFTVYAMGWYRPAPGKEREFVAAITGSGGRTYYADSVKGRFTISRDNAKNTVYLQMNSLKPEDTAVYYCAATTRPGYRYEGDYWGQGTQVTVSS	low polyreactivity
QVQLVESGGGLVQAGGSLRLSCAASGSIFTVYAMGWYRQAPGKERELVAVINYRGGNTYYADSVKGRFTISRDNAKNTVYLQMNSLKPEDTAVYNCATEVSWHWYQLSVPRMDYWGQGTQVTVSS	low polyreactivity
QVQLVESGGGLVQAGGSLRLSCAASGSIFTVYTMGWYRQAPGKVRELVAAINSRGGTTYYADSVKGRFTISRDNAKNTLYLQMNSLKPEDTAVYYCAAKQRPKSYGPGHYYWGQGTQVTVSS	high polyreactivity

Sequence	polyreactivity (PSR sort gate)
QVQLVESGGGLVQAGGSLRLSCAASGSIFTWYAMGWYRQAPGKERELVAAITRGGSTYADSVKGRFTISRDNAKYTVYLQMNSLKPEDTAVYYCNAVYGVYDFNYWGQGTQVTVSS	low polyreactivity
QVQLVESGGGLVQAGGSLRLSCAASGSIFTYKAKVRYRQAPGKERELVAAISASGGSTYYADSVKGRFTISRDNAKHTVYVQMNSLKPEDTALYYCNAYQTSTPLFPGYGYWGQGTQVTVSS	low polyreactivity
QVQLVESGGGLVQAGGSLRLSCAASGSIFTYNAMGWYRQAPGKERELVAAISSRGTSTYYADSVKGRFTISRDNAKNTVYLQMNSLKPEDTAVYYCAAVWVSQRRPWGNTNNYWGQGTQVTVSS	high polyreactivity
QVQLVESGGGLVQAGGSLRLSCAASGSIFTYNAMGWYRQAPGKERELVAAITGDDITNYADSVKGRFTISRDNAKNTVYLQMNSLKPEYTAVYYCARDQWVFGSSPVQAGEYWGQGTQVTVSS	low polyreactivity
QVQLVESGGGLVQAGGSLRLSCAASGSIFTYNAMGWYRQAPGKERELVASITWSGGSTYYADSVKGRFTISRDNAKNTVYLQMNSLKPEDTAVYYCAAKRVHGATGYWGQGTQVTVSS	high polyreactivity
QVQLVESGGGLVQAGGSLRLSCAASGSIFTYNGMGWYRQAPGKEREFVAAITWTGGSTYADSVKGRFTISRDNAKNTVYLQMNSLKPEDTAVYYCAAVRRISWYTPVNTRRYYYWGQGTQVTVSS	high polyreactivity
QVQLVESGGGLVQAGGSLRLSCAASGSIFTYNVMGWYRHAPGKERELVAAIRTRGDRTYYADSVKGRFTISRDNAKNTVYLQMNSLKPDDTAVYYCAAAGSYYSHEYWGQGTQVTVSS	high polyreactivity
QVQLVESGGGLVQAGGSLRLSCAASGSIFTYYAMGWYRQAPGKERELVAAISLDGGSTYYADSVKGRFTISRDNAKNTVYLQMNSLKPEDTAVYYCAADYRFIPYTYLYDYWGQGTQVTVSS	low polyreactivity
QVQLVESGGGLVQAGGSLRLSCAASGSIFTYYAMGWYRQAPGKERELVAAISWRSGSTYYADSVKGRFTISRDNAKNTVYLQMNSLKPEDTAVYYCAAEDFDYAVWYDYWGQGTQVTVSS	high polyreactivity
QVQLVESGGGLVQAGGSLRLSCAASGSIFTYYAMGWYRQAPGKERELVAAISWSGGSTYYADSVKGRFTISRDNAKNTVYLQMNSLKPEDTAVYYCAAGRFYKWSRYQEYDYWGQGTQVTVSS	low polyreactivity
QVQLVESGGGLVQAGGSLRLSCAASGSIFTYYAMGWYRQAPGKERELVAAITWGGSTYADSVKGRFTISRDNAKNTVYLQMNSLKPEDTAVYYCAAQFRSYRYPAYHYDYWGQGTQVTVSS	low polyreactivity
QVQLVESGGGLVQAGGSLRLSCAASGSIFTYYAMGWYRQAPGKERELVATITGLGGRTYYADSVKGRFTISRDIAKNTVYLQMNSLKPEDTAVYYCAVVPETRYYYWGHGTQVTVSS	high polyreactivity
QVQLVESGGGLVQAGGSLRLSCAASGSIFTYYAMGWYRQAPGKERELVDAITWDDDGTYYADSVKGRFTISRDNAKNTVYLQMNSLKPEDTAVYYCAADDGDPYDYWGQGSQVTVSS	low polyreactivity
QVQLVESGGGLVQAGGSLRLSCAASGSIFTYYVMGWYRQAPGKERELVAGITGGGSTNYADSVKGRFTISRDNAKNTVYLQMNSLKPEDTAVYYCNAYEYLSAGYDYWGQGTQVTVSS	low polyreactivity
QVQLVESGGGLVQAGGSLRLSCAASGSIFTYYVMGWYRQAPGKERELVAVISRRGGRTYYADSVKGRFTISRDNAKNTVYLQMNSLKPEDTAVYYCATTYKTRYGGRYRYYYWGQGTQVTVSS	high polyreactivity
QVQLVESGGGLVQAGGSLRLSCAASGSIFVAYEMGWYRPAPGKERELVAAIDSVGRTNYADSVKGRFTISRDNAKNTDYLQMNSLKRVDTSVYSCNADQYYSFYDPDDYWGQGTQVTVSS	low polyreactivity
QVQLVESGGGLVQAGGSLRLSCAASGSIFVDNAMGWYRQAPGTERELVAAINWSGGSTYYADSVKGRFTISRDNAKNTVYLQMNSLKPEDTAVYYCIAARPGQTWDEQSWYDYWGQGTQVTVSS	low polyreactivity
QVQLVESGGGLVQAGGSLRLSCAASGSIFVENAMGWNRQAPGKEREFVAAITRSGGSTYYADSVKGRFTISRDNAKNTVYLQMKILKPEDTAVYYCSARIWDEQPAGGYYWGQGTQVTVSS	low polyreactivity
QVQLVESGGGLVQAGGSLRLSCAASGSIFVEYAMGWYRQAPGKERELVAAISYSGSSTNYADSVKGRFTISRDNAKNTVYLQMNSLKPEDTAVYYCNADGTGGEQKPYYELDYWGQGTQVTVSS	low polyreactivity
QVQLVESGGGLVQAGGSLRLSCAASGSIFVEYAMGWYRQAPGKERELVASITWSSTSTYYADSVKGRFTISRDNAKNTVYLQMNSLKPEDTAVYYCNTEDYQYAPYEYDYWGQGTQVTVSS	low polyreactivity
QVQLVESGGGLVQAGGSLRLSCAASGSIFVEYAMGWYRQAPGQERELVAAISYSGSSTNYADSVKGRFTISRDNAKNTVYLQINSLKPEDTAVYYSNADGTGGEQKPYYELDYWGQGTQVTVSS	low polyreactivity
